The DeepSol protein solubility set

Test: soluble on expression in E. coli; label from the status in PepcDB or PDB records

| Sequence | soluble on expression in E. coli |
| --- | --- |
| MYRFLSGIKVVEIAGLAPVPHCGMMLADFGADVTVIDKKNPAIEQRLNRGKTMKQLDLKNPEDIKKVRDLCQTSDVLLDPYRPGTLEKMGLDPSTLWNNNKGLIICKISGYGQTGRMSQETGHDINYVALSGMLPTFSGVNATRPWPPANMLADFAGGGLSAAFGILSAIYARSHNGGKGCLLDCSMTEGVAYLSSFVQHYYDQPNLFTDKYALFSGECPIYRTYKTKDDKFVAVGAVEPKFYQNLFKLLNVDGRDLFVNPGKITEDLESRFLQKTRDKWANIFKGQECCVTPVLDIHEVGSYGQHVDRNSFTKTSSNWIANPSPRVWTQDELAALSSKK | not soluble |
| MDIRKFFGVIPSGKKLVSETVKKNEKTKSDEETLKAKKGIKEIKVNSSRKEDDFKQKQPSKKKRIIYDSDSESEETLQVKNAKKPPEKLPVSSKPGKISRQDPVTYISETDEEDDFMCKKAASKSKENGRSTNSHLGTSNMKKNEENTKTKNKPLSPIKLTPTSVLDYFGTGSVQRSNKKMVASKRKELSQNTDESGLNDEAIAKQLQLDEDAELERQLHEDEEFARTLAMLDEEPKTKKARKDTEAGETFSSVQANLSKAEKHKYPHKVKTAQVSDERKSYSPRKQSKYESSKESQQHSKSSADKIGEVSSPKASSKLAIMKRKEESSYKEIEPVASKRKENAIKLKGETKTPKKTKSSPAKKESVSPEDSEKKRTNYQAYRSYLNREGPKALGSKEIPKGAENCLEGLIFVITGVLESIERDEAKSLIERYGGKVTGNVSKKTNYLVMGRDSGQSKSDKAAALGTKIIDEDGLLNLIRTMPGKKSKYEIAVETEMKKESKLERTPQKNVQGKRKISPSKKESESKKSRPTSKRDSLAKTIKKETDVFWKSLDFKEQVAEETSGDSKARNLADDSSENKVENLLWVDKYKPTSLKTIIGQQGDQSCANKLLRWLRNWQKSSSEDKKHAKFGKFSGKDDGSSFKAALLSGPPGVGKTTTASLVCQELGYSYVELNASDTRSKSSLKAIVAESLNNTSIKGFYSNGAASSVSTKHALIMDEVDGMAGNEDRGGIQELIGLIKHTKIPIICMCNDRNHPKIRSLVHYCFDLRFQRPRVEQIKGAMMSIAFKEGLKIPPPAMNEIILGANQDIRQVLHNLSMWCARSKALTYDQAKADSHRAKKDIKMGPFDVARKVFAAGEETAHMSLVDKSDLFFHDYSIAPLFVQENYIHVKPVAAGGDMKKHLMLLSRAADSICDGDLVDSQIRSKQNWSLLPAQAIYASVLPGELMRGYMTQFPTFPSWLGKHSSTGKHDRIVQDLALHMSLRTYSSKRTVNMDYLSLLRDALVQPLTSQGVDGVQDVVALMDTYYLMKEDFENIMEISSWGGKPSPFSKLDPKVKAAFTRAYNKEAHLTPYSLQAIKASRHSTSPSLDSEYNEELNEDDSQSDEKDQDAIETDAMIKKKTKSSKPSKPEKDKEPRKGKGKSSKK | soluble |
| MLVRDVMKSPVLTVGPEATLEEAYKLLLERGIRHLPVVEEGRLVGIVTDRDIRLATSHLNPKGPCPGCTRVGEVMTREVVTAHPLDPVEEAARVMRERKIGCLPVLEDEALVGIVTGIDLLDALLRLTGVTEPSGRLEVRLPDRPGELARLTGFLAGRGVNIHSLLSYPEGREFVRAVVRVNTLETHLLAEALRREGFDVLWPPKKPW | soluble |
| KSCCSCCPAGCEKCAKDCVCKGEEGAKAEAEKCSCCQ | soluble |
| MSLCELLGMSANVPTDIVFSFTGLMQRGGGTGPHRDGWGIAFYEGRGVRLFQDPLASVDSEVARLVQRFPIKSETVIGHIRQANVGKVGLSNTHPFIRELGGRYWTFAHNGQLADFQPKPGFYRPVGETDSEAAFCDLLNRVRRAFPEPVPVEVLLPVLISACDEYRKKGVFNALISDGDWLFTFCSSKLAYITRRAPFGPARLKDADLTVDFHAETTPDDVVTVIATEPLTDNENWTLQQSGEWVLWWGGEVLAKGEGGSHHHHHH | soluble |
| MAHHHHHHMAPQFYLGLQMSAIIAAIPDITRAHSAVEVSEMTDLLRAGVTPYARMLDDEDFNEEFVFGMYGMALDSWQRASYEEMTKKYHLALTAIHEAINPPFKLEHFQRITRLVLARAEHVPPADYYSGHLFLRRLRRRWRRLRKIPEPAQVALVPYVDLVNHSNRPNCTIRIGPSSVLSGESAITLFTLRDVLPGQELCRHYNFALNRASALFRYGFLPFDLISIVEHDAVDEHVMKSRDMFRAVSEEQLEHQRREAEEVARLEKLFQDAKQSHGGSGAAASTPPGRQPNPSLSDRVSRREE | not soluble |
| MTYSIVAISGSPSRNSTTAKLAEYALAHVLARSDSQGRHIHVIDLDPKALLRGDLSNAKLKEAVDATCNADGLIVATPIYKASYTGLLKAFLDILPQFALAGKAALPLATGGSPAHVLALDYGLRPVLHSMGVRHVVQSFFLVQSQFSVVDGKLAVEDDVASQLNNAIDHFRLSLSSEPSTRHLGHPRPSLDATRAA | soluble |
| MSLDNHNPKKSTTPNNEFHKKIATTGKIINLPKQSIVPAVSISVYNDMKTIVLTPMEFQLSSIGFQFQNLIIDLPHSTISTNCITFYYHQDHILIDLIDQNYLFITLKIAIDRFILGGQQLTLDNFEEWGYISVPYSFELRSSPFLLKCLDNLNLIVSLKDGGLLHFKRDEELGEINVFNFQEQGTLIPFLGFFGSGKQKDVVLDGVSSNSIVDALQIGGSGVVITLSVNKVLKLWNLDGHQNLSSLTIASDDNTWLPTIPSKYLKSYDQEDGKTIITLFINTKSGDSSKSMFVFKSFELESSNEGHHHHHH | not soluble |
| MDQTYAEIENIYTLSPIIATTPKRYDVQYIQQKSRKNRNLIDHFDSRLPIEYRYPKKNSSATSSLSSAASRSLASKSLASSSSGYSSLGSTSSITTVFNGLSPFRSKSKNEEFDEQKAPSMRISEDVASIVIGENNSEVEEAVIDEVPEIKKRACCIECREKEIRQELDLESHQYANLQSLQKPQDPYVFLMTSMLTNLQKEDGGRQVVKVQQKIEKVLRLKPREPFNVEQKLVFDRQISTFASDVTIRLRAVSDAAPETYRDVSARFCEALHPGTPNSKGLKNIVKGVKNLLNF | not soluble |
| MSLRVTYRRRLSYNTTSNKKRLVKTPGGRLVVQYIKKRGQIPKCRDTGVKLHGITPARPIALRLLKRNERTVTRAYGGCLSPNAVKERITRAFLVEEQKIVNKVIKHQKD | not soluble |
| ISVLDLTPVSTGQQPGEALRHTLELAEVADSYQYTRFWIAEHHNSGAFVSAATEILIALAAARTGRIRVGSGGVMLPNHSPLKVAENFMSLEALFPGRIDLGLGRAPGTDGRTALALRRSREALAADDFPTQIALLRAFAGETPWPAGSVFDGVLAEPRGVKLPPLWILGSSLYGAQLAGELGVGYAFAYHFSQEDPAVAVQTYHRHFRPGPLAEPYAILGVNALAAPTEDEARDLSLTSAALSLGILSGQRGVLRSPEEARQWLQEMDTDPAKLLKKARIGTPEQVWASLQELGESTGAQEMLVTTYAHDPLKRQQSYRLLAQ | not soluble |
| MDFAVMKQVKNTGLLQSEELCQYILRTSVYPREAGFLKELREANESHPDSYMSTSPLAGQLMSFVLKLVNAKKTIEVGVFTGYSLLLTALSIPDDGKITAIDFDREAYEIGLPFIRKAGVEHKINFIESDAMLALDNLLQGQESEGSYDFGFVDADKPNYIKYHERLMKLVKVGGIVAYDNTLWGGTVAQPESEVPDFMKENREAVIELNKLLAADPRIEIVHLPLGDGITFCRRLY | soluble |
| APKASLRLGFSEYSRISNLIVLHLRKVEEEEDESALKRSELVNWYLKEIESEIDSEEELINKKRIIEKVIHRLTHYDHVLIELTQAGLKGSTEGSESYEEDPYLVVNPNYLLED | soluble |
| MTKNDNTIFKDIYQLWFTQYKQTVKESTWVTTQRLFRLHILPIFSDYRIAKISIKDCQKAINQWFNAGLAKYHTLMNYVAKVLDYAINIDLISENPAKRVIVPVNKNDRSLEHHHHHH | soluble |
| MARIFTYPLARKRIRMHKPDDKQYDATYFTRWYRDAGLADPARLRRKVALAVAQAEYYLERPIRTVLDVGCGEAAWRAPLLALRPKLQYLGFDSSEYAVQRYGRSRQIHPARFGDFAWLRPCAPVDLLICSDVLHYVPTREFNQGLPGLAEMCAGVAFLETFAEEDAFEGDHEGFQARPARWYRRRFASVGFTALGSHCWLSPQLRGETAALEHS | soluble |
| MSNAFEYLRTYVESTTETDAAVARAREDAAEFGLPAPDEMTGQLLTTLAATTNGNGSTGAIAITPAAGLVGLYILNGLADNTTLTCIDPESEHQRQAKALFREAGYSPSRVRFLLSRPLDVMSRLANDSYQLVFGQVSPMDLKALVDAAWPLLRRGGALVLADALLDGTIADQTRKDRDTQAARDADEYIRSIEGAHVARLPLGAGLTVVTKALEHHHHHH | soluble |
| MGSDKIHHHHHHMYGNKIVFSGLENIKDCCKMKITRDELLIAAFKLFMSVNYEKASFAELGKMLGMSKAGIFKYYKNKQELFIAVVDKFWFSTQNPRNKFTETNGTFAEFIDEYVRGVQRTMDMLGDLIGAEREKVAQGKFTYHAQYFHFLFQLLQYDPDAKEKLRNLVEVDYAYWRAAIQRAIATGELREDVDVEDAVVMFRQVYMGLSFEMAFMGGLNTQRLAKHLHAVYSLLKR | not soluble |
| GPGSMGVALTHGLQRQRQQRTAAGHRSANRRGKRGLPPSLLGRLCMFVFVWMHLAEERERRECRLQGKKVFLEESSAGSSRSCMRRRHVCGVRACAGRRGCFASSVISLRCWTSSQSAVVAALTRLRVSSFSAPHLFRLARSAAPTREAASTKYFIDSLAAHSSRLIGVRAPLAHTHVHLGDCIDSTTSACVCGEEIHHHRAQPGVTVSLCTPFSLSHTPSTAWAPLLPADKHHMQASPVLAGAAVRRTATASVGSEPRTNLPFLINVVKKAQKSANTVVASTPALSSMSSTKEPPIQAAAFKPYPLLSPGEVKQAAGSSLLYKDDVCVLVNDAFPKSMVHCLVMPLDLRLQSLNALTKKDAPLLRHMLHVGDEYVRYLKTAVPHTYTARRFIAGFHALPSLPMLHMHVLSTDLDSPCLKNKKHYNSFATFFFLTGDRVLDDLERHGRVTLNQDVTRLRQMEEQDMKCLWCGTALPSVPAMKSHIQCCPQNKAVEKSS | not soluble |
| MAEICLITGTPGSGKTLKMVSMMANDEMFKPDENGIRRKVFTNIKGLKIPHTYIETDAKKLPKSTDEQLSAHDMYEWIKKPENIGSIVIVDEAQDVWPARSAGSKIPENVQWLNTHRHQGIDIFVLTQGPKLLDQNLRTLVRKHYHIASNKMGMRTLLEWKICADDPVKMASSAFSSIYTLDKKVYDLYESAEVHT | soluble |
| MGSDKIHHHHHHMREDIVVIGGYGQVGRAICRLLARRYAGRVYAAGRNFEKANRFSLETDGEVQPLQVDIHQPKKAFEALNQPKVVIVCIDQDHTEFARLCAKNGIDYLDITANGKFLKELGGLNRGAVKHTGVISVGLAPGITNLLVEQAVRMFEQVHQVDISILLGLGDEHGVGAMEWTFQQINQSFDVMVQNDWRQVKSFTDRKQVSFGKAIGNHSVYRFPFSDQQTLARTLHLPTVSTRLCFDSRLVTAVVATMRRLHITKLLSLPAVRKVLTTLLNVFPYGSEQYGVRVEVKGVRKDEKEEVYSLFTGENEALMTAHVASAVAFALYEHPCPKGVFHIEELFELVFIDQHISLTLKGTEFSYPLPTPKQFVQNETSICSQNHS | not soluble |
